In patent publication US12594347B2, “Nanoparticulate drug delivery systems” (Duke University, priority 2018, dated 2026):
Read-outs that look alike come from different tables or passages of the source.

What was measured:
[1] = Biodistribution in C26 tumor-bearing mice; format: in vivo, Balb/C mice; details: mouse, in vivo
Method: Cell culture and tumor inoculation.
Biodistribution. […] At 2 and 24 h after injection, tissues (tumor, muscle, heart, lung, liver, spleen and kidney) were removed, weighed and suspended in 1.0 mL acidified isopropanol (75 mM HCl, 10% water, 90% isopropanol). Tissues were then homogenized using 2 mm diameter zirconia beads and a MiniBeadbeater-1TM (Biospec; Bartlesville, OK) for 2 min at 5,000 beats per minute and were incubated overnight at 4° C. in the dark. The isopropanol extracts were then vortexed, and centrifuged (14,000 RPM, 10 min, 4° C.) and 125 uL of the supernatant was loaded onto a black 96-well plate (BD Biosciences) in duplicate. […] To correct for background tissue fluorescence, tissues were removed from three untreated control mice and were processed similarly. For each tissue, a background (counts per mg tissue) curve was created using 2-fold dilutions of the processed tissues in acidified isopropanol.

Canine pharmacokinetics = test: Canine pharmacokinetics
Source text: Canine pharmacokinetics and toxicities. […] All procedures and protocols involving care, handling, and dosing for this study were reviewed and approved by the Institutional Animal Care and Use Committee (IACUC) at North Carolina State University College of Veterinary Medicine, which is an AAALAC-accredited facility. The animals' health status were monitored daily by the animal technicians and veterinary staff, paying particular attention for signs of gastrointestinal toxicities including vomiting, diarrhea, lethargy, and inappetence. If noted, supportive care was provided. […] 2 mL blood samples were drawn from jugular vein at 40 s, 15 and 30 min, 2, 4, 8, 24, 48, and 72 h after injection, diluted into 400 μL heparinized PBS (1000 UmL^−1). Sample processing and analysis were performed as with murine pharmacokinetics studies.

[2] = system: C26 murine colon adenocarcinoma cells
Method: C26 murine colon adenocarcinoma cells were seeded (5000 cells/well) in a 96-well plate. After 24 h, cells were treated in triplicate with 3-fold serial dilutions of drugs beginning with 100 uM. After 72 h incubation, 20 μL of CellTiter 96 AQueous™ (Promega; Madison, WI) 3-(4,5-dimethlthiazol-2-yl)-5-(3-carboxymethoxphenyl)-2-(4-sulfophenyl)-2H-tetrazolium (MTS) reagent was added to each well followed by 3 h incubation at 37° C. The absorbance at 490 nm was determined using a Victor3™ microplate reader (Perkin Elmer; Waltham, MA). For each plate, blank wells (with no cells) were defined as 0% viability and wells treated with PBS were defined as 100% viability. The background absorbance at 490 nm was corrected by subtracting the average absorbance of the blank wells from each well. The percent viability was defined as the absorbance of each well normalized to the absorbance of wells treated with PBS. Inhibitory concentration (IC 50) values were calculated using a four-parameter logistic fit in the Prism program (GraphPad Software, San Diego, CA, USA).

[3] = system: MDA-MB-231 human breast cancer cells; test: In vitro cytotoxicity, MTS assay, MDA-MB-231 cells; format: cell-based; details: 72 h incubation, read-out: half-maximal inhibitory concentration (IC50)
Method: In vitro cytotoxicity of the ABDN-CP-PTX versus that of naked CP-PTX and free PTX was determined using the […] MTS assay. […] The MTS assay was repeated twice to ensure validity of results.

[4] = Thermal turbidimetry (transition temperature); format: physicochemical
Method: Thermal Turbidimetry. Thermal profiles of CPs and CP conjugates were determined by measuring the transition temperature (Tt) over a range of concentrations (5, 10, 25, 50, and 100 uM) in PBS, FBS, and MS using a Cary UV-visible spectrophotometer equipped with temperature controller (Agilent Technologies, CA, USA). […] The transition temperature was defined as the maximum first derivative of the optical density.

[5] = target: T1, human serum albumin (HSA) (Homo sapiens, UniProt P02768); test: Isothermal titration calorimetry (VP-ITC) of polypeptide carriers with human albumin; format: binding; details: PBS pH 7.4, 37° C.
Method: (§1) Interaction with albumin. Interaction of CP monomers and micelles with human and mouse albumin was analyzed by isothermal titration calorimetry (ITC).

[6] = target: T2, mouse serum albumin (MSA) (Mus musculus, UniProt P07724); test: Isothermal titration calorimetry (Nano ITC) for PTX conjugates with mouse albumin; format: binding
Method: (§2) For PTX conjugates, ITC was conducted using a Nano ITC system (TA Instruments, Utah, USA). Aliquots of 10 uL of 500 uM albumin in PBS were titrated via a 250 μl syringe into CP-PTX at 50 uM concentration, stirring at 300 rpm at 37° C. For background correction, PBS (in the cell) was titrated with albumin (in the syringe) at the same concentrations and conditions. Background was subtracted from the final curves and the binding and thermodynamic parameters binding constant (KD), number of binding sites (n), and enthalpy (ΔH)—were computed by non-linear fitting to an independent-binding site model using TA Instruments NanoAnalyze software.

[7] = target: T2, mouse serum albumin (MSA); test: Isothermal titration calorimetry (VP-ITC) of polypeptide carriers and DOX micelles with mouse albumin; format: binding; details: PBS pH 7.4, 37° C.
Method: as §1

[8] = target: T1, human serum albumin (HSA); test: Isothermal titration calorimetry (Nano ITC) for PTX conjugates with human albumin; format: binding
Method: as §2

[9] = Pharmacokinetics of Alexa488-labeled ABD-ELP and ELP monomers in mice; format: in vivo; details: tail vein, Balb/C mice, two-compartment model
Method: A single cysteine was added to the C-terminus of polypeptides and was reacted with Alexa 488-maleimide (Life Technologies, Carlsbad, CA, USA). 50 uL Alexa 488-maleimide at 27.75 uM in DMSO was added to the polypeptide solution in the reaction (250 uM) and was allowed to stir for 3 hr at room temperature in the dark. Unbound Alexa488 was then removed by Amicon ultra-15 centrifugal filter units (MWCO 10 kDa, Millipore) and in PBS. Alexa488 concentration and conjugation efficiency was then determined.
125 uL of the supernatant was loaded onto a black 96-well plate (BD Biosciences) in duplicate. Free Alexa488-maleimide solutions at various known concentrations were prepared in heparinized PBS and were loaded onto the plate as standards. Alexa488 fluorescence was measured on a Wallac Victor3 TM microplate reader (Perkin Elmer; Waltham, MA).

[10] = Dynamic and static light scattering; format: physicochemical; details: for % Intensity / Polydispersity / Rh: DLS
Method: Light Scattering. Dynamic and static light scattering measurements were performed using an ALV/CGS-3 goniometer system (Germany). […] To study the effect of albumin binding on micellar self-assembly, mouse albumin was added to the samples at 1:1 albumin-CP molar ratio in PBS. Measurements were obtained at 25° C. and 37° C. for angles between 30-150° at 5° increments with each angle consisting of 3 runs and 10 s each at each run. Hydrodynamic radius (Rh) was determined by dynamic light scattering. The radius of gyration (Rg) and the average molecular weight of the particle (MW) were calculated from the slope and intercept of a partial Zimm plot, respectively, using ALV/Dynamic and Static FIT and PLOT software and according. The micelle aggregation number Nagg, or the number of polypeptide chains per nanoparticle, was calculated by dividing the micelle molecular weight by the molecular weight of the polypeptide monomer.
Size and morphology of CP conjugated micelles. The radius and the aggregation number of the self-assembled micelles were determined, in the presence and absence of albumin, by dynamic and static light scattering at 37° C. using an ALV/CGS-3 goniometer system (Germany). Freeze fracture electron microscopy was performed to visualize the micelles and estimate their radius and morphology.

[11] = dogs, cephalic vein, 27 DOX Equiv/m^−2 BSA or 0.9 mg DOX Equiv/kg BW

T2 sequence (P07724 25-608): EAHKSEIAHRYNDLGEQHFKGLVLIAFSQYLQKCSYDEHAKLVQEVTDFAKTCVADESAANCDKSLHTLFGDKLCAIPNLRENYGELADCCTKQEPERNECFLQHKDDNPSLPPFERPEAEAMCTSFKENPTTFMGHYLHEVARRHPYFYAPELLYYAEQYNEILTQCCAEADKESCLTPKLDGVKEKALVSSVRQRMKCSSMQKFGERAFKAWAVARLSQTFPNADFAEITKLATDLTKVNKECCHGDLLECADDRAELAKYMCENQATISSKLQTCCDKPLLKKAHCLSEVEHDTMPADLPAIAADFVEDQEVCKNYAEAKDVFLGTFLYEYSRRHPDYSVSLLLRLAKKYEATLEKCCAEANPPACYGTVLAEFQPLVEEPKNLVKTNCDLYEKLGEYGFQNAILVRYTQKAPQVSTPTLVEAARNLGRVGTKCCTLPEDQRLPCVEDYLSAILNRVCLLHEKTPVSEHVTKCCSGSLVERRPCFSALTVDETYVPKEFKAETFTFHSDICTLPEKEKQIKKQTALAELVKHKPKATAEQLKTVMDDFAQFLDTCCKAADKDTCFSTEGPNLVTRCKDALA

COc1cccc2c1C(=O)c1c(O)c3c(c(O)c1C2=O)C[C@@](O)(C(=O)CO)C[C@@H]3O[C@H]1C[C@H](N)[C@H](O)[C@H](C)O1 [DOX, doxorubicin, reference compound]
accumulation in the spleen (in words) [1]: lower accumulation in the spleen than CP-DOX micelles | distribution to the heart, lung, kidneys, and muscle (in words) [1]: greater extent | Apparent distribution volume VD (Canine pharmacokinetics; dog, in vivo): 3.85 ± 0.26 mL/g | Plasma clearance CL (Canine pharmacokinetics; dog, in vivo): 0.7875 ± 0.0951 mL/h/g | Distribution half-life β t1/2 (Canine pharmacokinetics; [11]): 3.6 ± 0.5 min | Elimination rate constant kg (Canine pharmacokinetics; [11]): 0.96 ± 0.13 h⁻¹ | Plasma to tissue rate constant kpt (Canine pharmacokinetics; [11]): 8.51 ± 1.20 h⁻¹ | Elimination half-life α t1/2 (Canine pharmacokinetics; dogs, cephalic vein, 27 DOX Equiv/m^−2 BSA or 0.9 mg DOX Equiv/kg BW, plasma DOX): 2.9 ± 0.8 h | IC50 [2]: 90 nM

CC(=O)O[C@H]1C(=O)[C@@]2(C)[C@H]([C@H](OC(=O)c3ccccc3)[C@]3(O)C[C@H](OC(=O)[C@H](O)[C@@H](NC(=O)c4ccccc4)c4ccccc4)C(C)=C1C3(C)C)[C@]1(OC(C)=O)CO[C@@H]1C[C@@H]2O [free PTX, paclitaxel, reference compound]
IC50 ([3]; MDA-MB-231, printed MDA-MB-213 human breast cancer cells): 9.8 nM

B1: ABDN-ELP: ELP scaffold with albumin binding domain ABDN (SEQ ID NO:6) fused to the N-terminus and C-terminal cysteine sequence (protein)
chain: LAEAKVLANRELDKYGVSDYYKNLINNAKTVEGVKALIDEILAALPVPGAGVPGAGVPGAGVPGAGVPGAGVPGAGVPGAGVPGAGVPGAGVPGAGVPGAGVPGAGVPGAGVPGAGVPGAGVPGAGVPGAGVPGAGVPGAGVPGAGVPGAGVPGAGVPGAGVPGAGVPGAGVPGAGVPGAGVPGAGVPGAGVPGAGVPGAGVPGAGVPGAGVPGAGVPGAGVPGAGVPGAGVPGAGVPGAGVPGAGVPGAGVPGAGVPGAGVPGAGVPGAGVPGAGVPGAGVPGAGVPGAGVPGAGVPGAGVPGAGVPGAGVPGAGVPGAGVPGAGVPGAGVPGAGVPGAGVPGAGVPGAGVPGAGVPGAGVPGAGVPGAGVPGAGVPGAGVPGAGVPGAGVPGAGVPGAGVPGAGVPGAGVPGAGVPGAGVPGAGVPGAGVPGAGVPGAGVPGAGVPGAGVPGAGVPGAGVPGAGVPGAGVPGAGVPGAGVPGAGVPGAGVPGAGVPGAGVPGAGVPGAGVPGAGVPGAGVPGAGVPGAGVPGAGVPGAGVPGAGVPGAGVPGAGVPGAGVPGAGVPGAGVPGAGVPGAGVPGAGVPGAGVPGAGVPGAGVPGAGVPGAGVPGAGVPGAGVPGAGVPGAGVPGAGVPGAGVPGAGVPGAGVPGAGVPGAGVPGAGVPGAGVPGAGVPGAGVPGAGVPGAGVPGAGVPGAGVPGAGVPGAGVPGAGVPGAGVPGAGVPGAGVPGAGVPGAGVPGAGVPGAGVPGAGVPGAGVPGAGVPGAGVPGAGCGGCGGCGGCGGCGGCGGCGGCGG
transition temperature ([4]; 100 μM concentration in PBS): 57 °C | Tt ([4]; ABDN-CP fusions for conjugation with Paclitaxel): 48 °C | binding stoichiometry N [5]: 1.04±0.00 | n (number of binding sites) ([6]; listed as ABD-CP): 1.05 | binding stoichiometry N [7]: 1.12±0.00 | n (number of binding sites) ([8]; listed as ABD-CP): 0.95 | Apparent distribution volume VD [9]: 0.27 ± 0.01 mL/g | Area under the curve AUC [9]: 80.2 ± 1.9 µM·h | Distribution half-life β t1/2 [9]: 1.24 ± 0.295 h | Elimination half-life α t1/2 [9]: 16.8 ± 0.5 h | Elimination rate constant kg [9]: 0.08 ± 0.00 h⁻¹ | Plasma clearance CL [9]: 0.012 ± 0.000 mL/h/g | Plasma to tissue rate constant kpt [9]: 0.21 ± 0.06 h⁻¹ | Tissue to plasma rate constant ktp [9]: 0.31 ± 0.07 h⁻¹ | Elimination half-life α t1/2 ([9]; listed as ABDN-CP): 17 h

B2: ABD-CP-PTX (conjugate)
chain: LAEAKVLANRELDKYGVSDYYKNLINNAKTVEGVKALIDEILAALPVPGAGVPGAGVPGAGVPGAGVPGAGVPGAGVPGAGVPGAGVPGAGVPGAGVPGAGVPGAGVPGAGVPGAGVPGAGVPGAGVPGAGVPGAGVPGAGVPGAGVPGAGVPGAGVPGAGVPGAGVPGAGVPGAGVPGAGVPGAGVPGAGVPGAGVPGAGVPGAGVPGAGVPGAGVPGAGVPGAGVPGAGVPGAGVPGAGVPGAGVPGAGVPGAGVPGAGVPGAGVPGAGVPGAGVPGAGVPGAGVPGAGVPGAGVPGAGVPGAGVPGAGVPGAGVPGAGVPGAGVPGAGVPGAGVPGAGVPGAGVPGAGVPGAGVPGAGVPGAGVPGAGVPGAGVPGAGVPGAGVPGAGVPGAGVPGAGVPGAGVPGAGVPGAGVPGAGVPGAGVPGAGVPGAGVPGAGVPGAGVPGAGVPGAGVPGAGVPGAGVPGAGVPGAGVPGAGVPGAGVPGAGVPGAGVPGAGVPGAGVPGAGVPGAGVPGAGVPGAGVPGAGVPGAGVPGAGVPGAGVPGAGVPGAGVPGAGVPGAGVPGAGVPGAGVPGAGVPGAGVPGAGVPGAGVPGAGVPGAGVPGAGVPGAGVPGAGVPGAGVPGAGVPGAGVPGAGVPGAGVPGAGVPGAGVPGAGVPGAGVPGAGVPGAGVPGAGVPGAGVPGAGVPGAGVPGAGVPGAGVPGAGVPGAGVPGAGVPGAGVPGAGVPGAGVPGAGVPGAGVPGAGVPGAGVPGAGCGGCGGCGGCGGCGGCGGCGGCGG
% Intensity ([10]; Concentration 20 μM): 95.4% | Polydispersity ([10]; Concentration 20 μM): 24.6% | Rh ([10]; Concentration 20 μM): 39.6 ± 2.2 nm | % Intensity ([10]; Concentration 40 μM): 96.6% | Polydispersity ([10]; Concentration 40 μM): 26.6% | Rh ([10]; Concentration 40 μM): 44.1 ± 4.7 nm | Nagg ([10]; SLS, 20 μM concentration): 64.5 | RG ([10]; SLS, 20 μM concentration): 42.83 nm | aggregation (in words) ([10]; body temperature (37° C.)): no aggregates | n (number of binding sites) [6]: 0.95 | n (number of binding sites) [8]: 0.92 | IC50 ([3]; printed MDA-MB-213 human breast cancer cells): 10.9 nM
